Positions count from the first letter of the chain named. Names and notes keep the numbering of the source. Read-outs that look alike come from different tables or passages of the source.
B1: Hu3F8-H3/Hu3F8-L5 (antibody, human IgG1, V domains shown)
VH: EVQLVQSGAEVKKPGASVKVSCKASGFTFTRYWMNWVRQAPGQGLEWIGRIDPSDSETHYNHKFWGRATLTVDTSTSTVYMELSSLRSEDTAVYYCLRSLYGKGDYWGQGTTVTVSS
VL: DVVMTQSPLSLPVTPGEPASISCRSSQSIVHSNGNTYLEWYLQKPGQSPQLLIYKVSNRFSGVPDRFSGSGSGTDFTLKISRVEAEDVGVYYCYQGSHVPLTFGGGTKVEIK
notes: Human IgG1 FES (L234F, L235E, P331S) and human Ig kappa constant domains; also called Hu3F8 VH3/VL5
B2: Hu3F6-H5/Hu3F6-L3 (antibody, human IgG1, V domains shown)
VH: B1 VH with A24T, T28A, R31S, T58A, N61A, T74K, T76S, Q109H
VL: B1 VL with P15L, E17Q, I29L, S32R, L42Q, K44R, Q50R
notes: Human IgG1 FES (L234F, L235E, P331S) and human Ig kappa constant domains; also called Hu3F6 VH5/VL3
B3: Hu3F6-H3/Hu3F6-L4 (antibody, human IgG1, V domains shown)
VH: B1 VH with A24T, T28A, R31S, T58A, N61H, T76S, Q109H
VL: B1 VL with V2I, S7T, P12S, E17Q, I29L, S32R
notes: Human IgG1 FES (L234F, L235E, P331S) and human Ig kappa constant domains; also called Hu3F6 VH3/VL4
B4: Hu3F6-H5/Hu3F6-L4 (antibody, human IgG1, V domains shown)
VH: B1 VH with A24T, T28A, R31S, T58A, N61A, T74K, T76S, Q109H
VL: B1 VL with V2I, S7T, P12S, E17Q, I29L, S32R
notes: Human IgG1 FES (L234F, L235E, P331S) and human Ig kappa constant domains; also called Hu3F6 VH5/VL4
B5: Hu3F6-H3/Hu3F6-L3 (antibody, human IgG1, V domains shown)
VH: B1 VH with A24T, T28A, R31S, T58A, N61H, T76S, Q109H
VL: B1 VL with P15L, E17Q, I29L, S32R, L42Q, K44R, Q50R
notes: Human IgG1 FES (L234F, L235E, P331S) and human Ig kappa constant domains; also called Hu3F6 VH3/VL3
B6: Hu3F8-H2/Hu3F8-L5 (antibody, human IgG1, V domains shown)
VH: B1 VH with I48M, A68V, L70M
VL: B1 VL
notes: Human IgG1 FES (L234F, L235E, P331S) and human Ig kappa constant domains; also called Hu3F8 VH2/VL5
B7: Hu3F8-H4/Hu3F8-L5 (antibody, human IgG1, V domains shown)
VH: B1 VH with T74K
VL: B1 VL
notes: Human IgG1 FES (L234F, L235E, P331S) and human Ig kappa constant domains; also called Hu3F8 VH4/VL5
B8: Hu3F6-H3/Hu3F6-L5 (antibody, human IgG1, V domains shown)
VH: B1 VH with A24T, T28A, R31S, T58A, N61H, T76S, Q109H
VL: B1 VL with S7T, P12S, E17Q, I29L, S32R
notes: Human IgG1 FES (L234F, L235E, P331S) and human Ig kappa constant domains; also called Hu3F6 VH3/VL5; Hu3F6-VH3/VL5
B9: Hu3F8-H6/Hu3F8-L3 (antibody, human IgG1, V domains shown)
VH: EVQLVQSGAEVKKPGESLRISCKASGFTFTRYWMNWVRQMPGKGLEWIGRIDPSDSETHYNHKFWGHATLSVDKSSSTVYLQWSSLKASDTAMYYCLRSLYGKGDYWGQGTTVTVSS
VL: B1 VL with P15L, E17Q, L42Q, K44R, Q50R
notes: Human IgG1 FES (L234F, L235E, P331S) and human Ig kappa constant domains; also called Hu3F8 VH6/VL3
B10: Hu3F8-H4/Hu3F8-L3 (antibody, human IgG1, V domains shown)
VH: B1 VH with T74K
VL: B1 VL with P15L, E17Q, L42Q, K44R, Q50R
notes: Human IgG1 FES (L234F, L235E, P331S) and human Ig kappa constant domains; also called Hu3F8 VH4/VL3
B11: Hu3F8-H6/Hu3F8-L4 (antibody, human IgG1, V domains shown)
VH: B9 VH
VL: B1 VL with V2I
notes: Human IgG1 FES (L234F, L235E, P331S) and human Ig kappa constant domains
B12: Hu3F8-H3/Hu3F8-L3 (antibody, human IgG1, V domains shown)
VH: B1 VH
VL: B1 VL with P15L, E17Q, L42Q, K44R, Q50R
notes: Human IgG1 FES (L234F, L235E, P331S) and human Ig kappa constant domains; also called Hu3F8 VH3/VL3
B13: Hu3F8-H1/Hu3F8-L5 (antibody, human IgG1, V domains shown)
VH: B1 VH with E1Q, I48M, A68V, L70M, V72R
VL: B1 VL
notes: Human IgG1 FES (L234F, L235E, P331S) and human Ig kappa constant domains; also called Hu3F8 VH1/VL5
B14: Hu3F8-H5/Hu3F8-L4 (antibody, human IgG1, V domains shown)
VH: B1 VH with H62A, T74K
VL: B1 VL with V2I
notes: as for B11
B15: Hu3F8-H2/Hu3F8-L3 (antibody, human IgG1, V domains shown)
VH: B1 VH with I48M, A68V, L70M
VL: B1 VL with P15L, E17Q, L42Q, K44R, Q50R
notes: Human IgG1 FES (L234F, L235E, P331S) and human Ig kappa constant domains; also called Hu3F8 VH2/VL3
B16: Hu3F8-H5/Hu3F8-L5 (antibody, human IgG1, V domains shown)
VH: B1 VH with H62A, T74K
VL: B1 VL
notes: as for B11
B17: Hu3F8-H4/Hu3F8-L4 (antibody, human IgG1, V domains shown)
VH: B1 VH with T74K
VL: B1 VL with V2I
notes: Human IgG1 FES (L234F, L235E, P331S) and human Ig kappa constant domains; also called Hu3F8 VH4/VL4
B18: Hu3F6-H5/Hu3F6-L8 (antibody, human IgG1, V domains shown)
VH: B1 VH with A24T, T28A, R31S, T58A, N61A, T74K, T76S, Q109H
VL: B1 VL with I29L, S32R
notes: Human IgG1 FES (L234F, L235E, P331S) and human Ig kappa constant domains; also called Hu3F6 VH5/VL8
B19: Hu3F8-H6/Hu3F8-L5 (antibody, human IgG1, V domains shown)
VH: B9 VH
VL: B1 VL
notes: Human IgG1 FES (L234F, L235E, P331S) and human Ig kappa constant domains; also called Hu3F8 VH6/VL5

What was measured:
[1] = molecular target: cynomolgus adenosine A2A receptor (A2aR) (cynomolgus); experiment: flow cytometry on PBMC, donor Cynomolgus 1, isotype control
[2] = molecular target: T1, human adenosine A2A receptor (A2aR) (human, UniProt P29274 1-412); experiment: flow cytometry on PBMC, donor human 1, isotype control
T1 sequence (P29274 whole entry): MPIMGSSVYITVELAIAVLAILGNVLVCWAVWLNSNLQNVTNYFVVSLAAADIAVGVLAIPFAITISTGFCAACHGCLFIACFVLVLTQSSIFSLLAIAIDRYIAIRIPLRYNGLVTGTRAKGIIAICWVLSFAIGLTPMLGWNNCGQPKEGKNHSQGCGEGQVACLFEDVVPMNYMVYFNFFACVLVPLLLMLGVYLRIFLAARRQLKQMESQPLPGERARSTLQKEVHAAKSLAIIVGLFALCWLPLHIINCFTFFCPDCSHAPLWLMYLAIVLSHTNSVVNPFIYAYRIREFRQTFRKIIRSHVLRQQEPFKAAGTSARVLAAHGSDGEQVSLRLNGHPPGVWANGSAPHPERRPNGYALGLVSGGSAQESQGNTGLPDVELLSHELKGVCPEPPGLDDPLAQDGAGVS

[3] = molecular target: T1, human adenosine A2A receptor (A2aR); experiment: flow cytometry on PBMC, donor human 2, isotype control
[4] = molecular target: cynomolgus adenosine A2A receptor (A2aR) (cynomolgus); experiment: flow cytometry on PBMC, donor Cynomolgus 2, isotype control
[5] = molecular target: T1, human adenosine A2A receptor (A2aR); experiment: flow cytometry, HEK293-hA2aR cells, supernatant 1 ug/ml
[6] = molecular target: T1, human adenosine A2A receptor (A2aR); experiment: flow cytometry titration, HEK293-hA2aR cells, purified antibody
[7] = molecular target: T1, human adenosine A2A receptor (A2aR); experiment: cell-based or functional assay
[8] = molecular target: T1, human adenosine A2A receptor (A2aR); experiment: flow cytometry, HEK293-hA2aR cells, supernatant 1 ug/ml; remark: listed apart in the source
[9] = molecular target: T1, human adenosine A2A receptor (A2aR); experiment: cell-based or functional assay; remark: listed apart in the source
[10] = molecular target: cynomolgus adenosine A2A receptor (A2aR) (cynomolgus); experiment: flow cytometry on PBMC, donor Cynomolgus 1
[11] = molecular target: cynomolgus adenosine A2A receptor (A2aR) (cynomolgus); experiment: flow cytometry on PBMC, donor Cynomolgus 2
[12] = molecular target: T1, human adenosine A2A receptor (A2aR); experiment: cell-based or functional assay; remark: listed apart in the source

Molecule	MFI [5] [MFI]	EC50 [6] [nM]	IC50 of blocking activity, cAMP-Glo, 300 nM NECA, HEK293-hA2aR cells, supernatant [7] [nM]	MFI [8] [MFI]	IC50 of blocking activity, cAMP-Glo, 300 nM NECA, HEK293-hA2aR cells, supernatant [9] [nM]	further results
Anti-HEL isotype control (BioIntron) (antibody)	–	–	–	–	–	% of A2aR+ CD4+ T cells [1]: 0.086%; % of A2aR+ CD8+ T cells [1]: 0.009%; % of A2aR+ NK cells [1]: 0.46%; % of A2aR+ NKT cells [1]: 0.22%; % of A2aR+ CD4+ T cells [2]: 0.083%; % of A2aR+ CD8+ T cells [2]: 0.005%; % of A2aR+ NK cells [2]: 0.21%; % of A2aR+ NKT cells [2]: 0.11%; % of A2aR+ CD4+ T cells [3]: 0.012%; % of A2aR+ CD8+ T cells [3]: 0.002%; % of A2aR+ NK cells [3]: 0.029%; % of A2aR+ NKT cells [3]: 0.058%; % of A2aR+ CD4+ T cells [4]: 0.099%; % of A2aR+ CD8+ T cells [4]: 0.007%; % of A2aR+ NK cells [4]: 0.42%; % of A2aR+ NKT cells [4]: 0.045%
B1	1850	0.83	1.5	–	–	–
B2	–	0.5	–	2090	1.3	–
B3	–	0.68	–	1840	19.5	–
B4	–	0.52	–	1920	7.8	–
B5	–	0.64	–	1930	2	–
B6	1770	0.9	1.8	–	–	–
B7	1890	0.75	1.5	–	–	–
B8	–	0.57	–	1900	5.3	% of A2aR+ CD4+ T cells [10]: 1.65%; % of A2aR+ CD8+ T cells [10]: 0.05%; % of A2aR+ NK cells [10]: 6.52%; % of A2aR+ NKT cells [10]: 1.06%; % of A2aR+ CD4+ T cells [11]: 1.2%; % of A2aR+ CD8+ T cells [11]: 0.11%; % of A2aR+ NK cells [11]: 2.07%; % of A2aR+ NKT cells [11]: 0.45%; IC50 of blocking activity, cAMP-Glo, 1.25 uM NECA, HEK293-hA2aR cells, purified antibody [12]: 0.8 nM; IC50 of blocking activity, cAMP-Glo, 5 uM Adenosine, HEK293-hA2aR cells, purified antibody [12]: 0.6 nM
B9	1880	0.59	1.2	–	–	–
B10	1910	0.6	0.7	–	–	–
B11	1880	–	2.3	–	–	–
B12	1860	0.69	1.1	–	–	–
B13	1790	0.85	1.4	–	–	–
B14	1840	–	2.2	–	–	–
B15	1800	0.66	1.1	–	–	–
B16	1900	–	1.6	–	–	–
B17	1880	0.79	1	–	–	–
B18	–	0.59	–	1890	1.1	–
B19	1900	0.65	1.5	–	–	–

— patent US20250206828A1, “ANTI-ADENOSINE RECEPTOR (A2aR) ANTIBODIES AND THE USE THEREOF” (Adept Therapeutics Inc., priority 2022, published 2025)
